B1: His6-N-WASp (natural protein, human, UniProt O00401 1-505, looked up)
chain: MSSVQQQPPPPRRVTNVGSLLLTPQENESLFTFLGKKCVTMSSAVVQLYAADRNCMWSKKCSGVACLVKDNPQRSYFLRIFDIKDGKLLWEQELYNNFVYNSPRGYFHTFAGDTCQVALNFANEEEAKKFRKAVTDLLGRRQRKSEKRRDPPNGPNLPMATVDIKNPEITTNRFYGPQVNNISHTKEKKKGKAKKKRLTKADIGTPSNFQHIGHVGWDPNTGFDLNNLDPELKNLFDMCGISEAQLKDRETSKVIYDFIEKTGGVEAVKNELRRQAPPPPPPSRGGPPPPPPPPHNSGPPPPPARGRGAPPPPPSRAPTAAPPPPPPSRPSVAVPPPPPNRMYPPPPPALPSSAPSGPPPPPPSVLGVGPVAPPPPPPPPPPPGPPPPPGLPSDGDHQVPTTAGNKAALLDQIREGAQLKKVEQNSRPVSCSGRDALLDQIRQGIQLKSVADGQESTPPTPAPTSGIVGALMEVMQKRSKAIHSSDEDEDEDDEEDFEDDDEWED

What was measured:
Assay in all cases: pull-down
His6-N-WASp = target: B1
[1] = target: full-length Arg (His6-Arg) (mouse, UniProt Q4JIM5 1-1182)
Sequence of full-length Arg (His6-Arg) (Q4JIM5 whole entry): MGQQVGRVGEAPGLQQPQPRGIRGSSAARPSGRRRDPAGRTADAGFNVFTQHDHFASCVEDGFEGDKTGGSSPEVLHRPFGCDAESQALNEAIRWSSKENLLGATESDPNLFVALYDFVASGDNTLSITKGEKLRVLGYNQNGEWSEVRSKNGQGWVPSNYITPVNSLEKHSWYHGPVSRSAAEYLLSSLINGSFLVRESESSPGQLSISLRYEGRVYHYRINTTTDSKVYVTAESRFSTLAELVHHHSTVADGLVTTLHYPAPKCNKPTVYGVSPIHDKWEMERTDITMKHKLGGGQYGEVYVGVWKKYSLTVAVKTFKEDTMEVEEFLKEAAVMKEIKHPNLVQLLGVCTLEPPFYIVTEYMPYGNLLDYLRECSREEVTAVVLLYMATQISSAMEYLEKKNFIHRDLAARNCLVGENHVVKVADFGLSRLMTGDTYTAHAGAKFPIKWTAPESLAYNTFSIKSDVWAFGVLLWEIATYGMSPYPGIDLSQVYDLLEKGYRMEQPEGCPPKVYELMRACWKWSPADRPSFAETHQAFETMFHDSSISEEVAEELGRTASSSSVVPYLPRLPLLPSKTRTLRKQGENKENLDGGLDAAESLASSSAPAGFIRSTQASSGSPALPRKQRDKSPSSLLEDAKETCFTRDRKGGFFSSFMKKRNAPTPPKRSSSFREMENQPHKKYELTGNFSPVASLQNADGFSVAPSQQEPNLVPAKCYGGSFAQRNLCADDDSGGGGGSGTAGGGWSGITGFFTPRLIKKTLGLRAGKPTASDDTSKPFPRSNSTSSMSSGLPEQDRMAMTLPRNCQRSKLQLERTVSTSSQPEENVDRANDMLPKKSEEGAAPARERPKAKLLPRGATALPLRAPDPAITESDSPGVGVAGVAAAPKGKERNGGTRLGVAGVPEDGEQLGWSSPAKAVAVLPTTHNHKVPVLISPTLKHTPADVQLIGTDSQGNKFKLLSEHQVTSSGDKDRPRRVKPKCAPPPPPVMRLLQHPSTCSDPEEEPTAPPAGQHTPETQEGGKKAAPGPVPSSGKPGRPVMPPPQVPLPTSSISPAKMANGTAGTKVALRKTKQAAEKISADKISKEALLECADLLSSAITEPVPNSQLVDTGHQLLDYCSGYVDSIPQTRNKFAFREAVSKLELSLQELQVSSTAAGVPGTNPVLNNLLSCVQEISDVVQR

[2] = target: Phosphorylated N-WASp (pN-WASp) (human, UniProt O00401 1-505, tyrosine phosphorylated by co-expressed Arg; Y256 is the primary site)

Binder | Kd (His6-N-WASp) [nM] | Kd [1] [nM] | Kd [2] [nM]
GST-Arg-SH3 (domain or fragment, mouse, UniProt Q4JIM5 107-167, looked up) SDPNLFVALYDFVASGDNTLSITKGEKLRVLGYNQNGEWSEVRSKNGQGWVPSNYITPVNS | 1400 ± 200 | – | –
B1 | – | ≥ 3800 | –
GST-Arg-SH3SH2 (domain or fragment, mouse, UniProt Q4JIM5 107-263, looked up) SDPNLFVALYDFVASGDNTLSITKGEKLRVLGYNQNGEWSEVRSKNGQGWVPSNYITPVNSLEKHSWYHGPVSRSAAEYLLSSLINGSFLVRESESSPGQLSISLRYEGRVYHYRINTTTDSKVYVTAESRFSTLAELVHHHSTVADGLVTTLHYPA | ≥ 3700 | – | 1700 ± 100

Source: article PMC2836179 (Biochemistry, 2010)
